Measured values: patent US20230310602A1 (published 2023)

Assays:
[1] = target: T1, HCELL (exofucosylated CD44) on FTVII-treated human MSCs (FuchAdMSCs, adipose-derived); FuchBMMSCs, bone … (human, UniProt P16070 21-742, fucose installed in α(1,3)-linkage onto sialyllactosaminyl glycans of CD44 by fucosyltransferase VII with GDP-fucose (creates sLe^x)); assay: cell-based or functional assay
[2] = target: T1, HCELL (exofucosylated CD44) on …; assay: cell-based or functional assay; remark: listed apart in the source

T1 sequence (P16070 21-742): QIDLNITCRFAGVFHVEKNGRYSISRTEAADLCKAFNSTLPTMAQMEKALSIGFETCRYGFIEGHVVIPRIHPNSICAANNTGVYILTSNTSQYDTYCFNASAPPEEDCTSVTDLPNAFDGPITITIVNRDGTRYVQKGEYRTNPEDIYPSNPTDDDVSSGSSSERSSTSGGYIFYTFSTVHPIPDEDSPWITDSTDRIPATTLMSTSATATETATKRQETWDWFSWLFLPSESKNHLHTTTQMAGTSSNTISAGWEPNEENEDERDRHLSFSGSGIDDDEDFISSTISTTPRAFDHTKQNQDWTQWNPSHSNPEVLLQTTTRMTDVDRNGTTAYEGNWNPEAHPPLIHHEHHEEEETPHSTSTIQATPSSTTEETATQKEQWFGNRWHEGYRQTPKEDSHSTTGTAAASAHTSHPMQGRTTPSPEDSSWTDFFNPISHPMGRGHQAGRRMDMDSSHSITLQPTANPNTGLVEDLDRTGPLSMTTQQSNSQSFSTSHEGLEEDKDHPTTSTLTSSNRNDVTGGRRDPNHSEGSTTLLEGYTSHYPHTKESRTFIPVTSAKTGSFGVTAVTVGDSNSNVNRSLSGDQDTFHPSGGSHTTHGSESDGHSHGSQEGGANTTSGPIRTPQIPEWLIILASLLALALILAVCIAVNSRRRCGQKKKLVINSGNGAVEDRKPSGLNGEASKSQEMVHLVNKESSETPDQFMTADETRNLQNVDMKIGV

B1: Recombinant mouse E-selectin-human Fc chimera (mE-Ig) (Fc fusion, UniProt Q00690 22-557, looked up, not shown: a dimerising Fc or GST)
chain: WYYNASSELMTYDEASAYCQRDYTHLVAIQNKEEINYLNSNLKHSPSYYWIGIRKVNNVWIWVGTGKPLTEEAQNWAPGEPNNKQRNEDCVEIYIQRTKDSGMWNDERCNKKKLALCYTASCTNASCSGHGECIETINSYTCKCHPGFLGPNCEQAVTCKPQEHPDYGSLNCSHPFGPFSYNSSCSFGCKRGYLPSSMETTVRCTSSGEWSAPAPACHVVECEALTHPAHGIRKCSSNPGSYPWNTTCTFDCVEGYRRVGAQNLQCTSSGIWDNETPSCKAVTCDAIPQPQNGFVSCSHSTAGELAFKSSCNFTCEQSFTLQGPAQVECSAQGQWTPQIPVCKAVQCEALSAPQQGNMKCLPSASGPFQNGSSCEFSCEEGFELKGSRRLQCGPRGEWDSKKPTCSAVKCDDVPRPQNGVMECAHATTGEFTYKSSCAFQCNEGFSLHGSAQLECTSQGKWTQEVPSCQVVQCPSLDVPGKMNMSCSGTAVFGTVCEFTCPDDWTLNGSAVLTCGATGRWSGMPPTCEAPVSPTRP
For B1, the “IDO in supernatant, ratio FuchAdMSCs/UhAdMSCs, mE-IG (1 µg/ml)” value [1] was 6.75 ratio, the “IDO in supernatant, ratio FuchAdMSCs/UhAdMSCs, mE-IG (5 µg/ml)” value [1] was 7.72 ratio and the “IDO in supernatant, ratio FuchBMMSCs/UhBMMSCs, mE-IG (1 µg/ml)” value [1] was 4.71 ratio. For the same binder, the “IDO in supernatant, ratio FuchBMMSCs/UhBMMSCs, mE-IG (5 µg/ml)” value [1] was 4.74 ratio, the “IL-10 in supernatant, ratio FuchAdMSCs/UhAdMSCs, mE-IG (1 µg/ml)” value [1] was 12.7 ratio and the “IL-10 in supernatant, ratio FuchAdMSCs/UhAdMSCs, mE-IG (5 µg/ml)” value [1] was 16 ratio. For the same binder, the “IL-10 in supernatant, ratio FuchBMMSCs/UhBMMSCs, mE-IG (1 µg/ml)” value [1] was 3.87 ratio, the “IL-10 in supernatant, ratio FuchBMMSCs/UhBMMSCs, mE-IG (5 µg/ml)” value [1] was 4.85 ratio and the “NO2^-/NO3^- in supernatant, ratio FuchAdMSCs/UhAdMSCs, mE-IG (1 µg/ml)” value [1] was 5.12 ratio. For the same binder, the “NO2^-/NO3^- in supernatant, ratio FuchAdMSCs/UhAdMSCs, mE-IG (5 µg/ml)” value [1] was 5.9 ratio, the “NO2^-/NO3^- in supernatant, ratio FuchBMMSCs/UhBMMSCs, mE-IG (1 µg/ml)” value [1] was 3.31 ratio and the “NO2^-/NO3^- in supernatant, ratio FuchBMMSCs/UhBMMSCs, mE-IG (5 µg/ml)” value [1] was 5.14 ratio. For the same binder, the “TGFβ in supernatant, ratio FuchAdMSCs/UhAdMSCs, mE-IG (1 µg/ml)” value [1] was 12.2 ratio, the “TGFβ in supernatant, ratio FuchAdMSCs/UhAdMSCs, mE-IG (5 µg/ml)” value [1] was 12.4 ratio and the “TGFβ in supernatant, ratio FuchBMMSCs/UhBMMSCs, mE-IG (1 µg/ml)” value [1] was 8.11 ratio. For the same binder, the “TGFβ in supernatant, ratio FuchBMMSCs/UhBMMSCs, mE-IG (5 µg/ml)” value [1] was 8.5 ratio and the “IL-10 production of adipose-derived hAdMSCs, ratio of FuchMSCs/UhMSCs for E-selectin exposure” value [2] was 10 fold.
